Test [1] deals with T1, soluble human FcRn (human, UniProt P55899 24-297; P61769 21-119).
T1 construct: Made in HEK293F cells from two vectors; also called sFcRn; not shown: C-terminal BirA deca-His-tag
The test is described as follows: SPR (IBIS MX96), Fc fragment immobilised, soluble FcRn titrated, pH 6.0, equilibrium 1:1 fit. As to the method:
(§1) Regeneration of the sensor surface between the cycles was performed by injection of 10 mM Gly-HCl pH 2.4. Affinity calculations were carried out by performing an equilibrium analysis interpolating to an Rmax of 200 to 600, depending on the assay, and fitting a 1:1 Langmuir binding model, assuming equilibrium to be reached after 360s of IgG-Fc containing analyte injections. Analysis and calculations were performed using Scrubber Software Version 2 (BioLogic Software), Excel (Microsoft) and Graphpad Prism (Prism).
(§2) Sensorgrams of a representative of three independent affinity measurements were used to determine the binding of the human IgG1-Fc variants to human FcγRs and human FcRn at pH 7.4 and pH 6.0. […] KD values were derived by performing an equilibrium analysis and fitting a 1:1 Langmuir binding model. […] No binding was marked as non-determinable (n.d.). Data are presented in Tables S1-S4 as mean±standard deviation.

For test [2], the target named is T1, soluble human FcRn. The test is described as follows: SPR (IBIS MX96), Fc fragment immobilised, soluble FcRn titrated, pH 7.4, equilibrium 1:1 fit. As to the method: as §1, §2
A further test has as its target T2, Fc-G236A-MST-HN (human, UniProt P01857-1 104-330 = IgG part, G236A; M252Y; S254T; T256E; H433K; N434F).
T2 construct: domain: Fc fragment; EU numbering
The test is described as follows: SPR (IBIS MX96), FcγR captured on sensor, Fc fragment titrated, pH 7.4, equilibrium 1:1 fit. How it is done:
as §1, with “The sensor surface was regenerated between the cycles by subsequent injections of 20 mM Tris-HCl, 150 mM NaCl pH 8.8 and 20 mM H₃PO₄ pH 2.4. […] Regeneration” for “Regeneration”

The next test has as its target T3, Fc-IHH (human, UniProt P01857-1 104-330 = IgG part, I253A; H310A; H435A).
T3 construct: domain: Fc fragment; IHH = I253A H310A H435A (EU numbering); also called IgG1-Fc-IHH
The description is as above. As to the method:
as §1, with “The sensor surface was regenerated between the cycles by subsequent injections of 20 mM Tris-HCl, 150 mM NaCl pH 8.8 and 20 mM H₃PO₄ pH 2.4. […] Regeneration” for “Regeneration”

A further test deals with T4, Fc-G236A (human, UniProt P01857-1 104-330 = IgG part, G236A).
T4 construct: domain: Fc fragment; Positions in EU numbering; also called IgG1-Fc G236A
The test is described as above. As to the method: as §1, with “The sensor surface was regenerated between the cycles by subsequent injections of 20 mM Tris-HCl, 150 mM NaCl pH 8.8 and 20 mM H₃PO₄ pH 2.4. […] Regeneration” for “Regeneration”

Another test addresses T5, Fc-MST-HN (human, UniProt P01857-1 104-330 = IgG part, M252Y; S254T; T256E; H433K; N434F).
T5 construct: domain: Fc fragment; MST-HN = M252Y S254T T256E H433K N434F (EU numbering); also called IgG1-Fc MST-HN
Described as above. As to the method:
as §1, with “The sensor surface was regenerated between the cycles by subsequent injections of 20 mM Tris-HCl, 150 mM NaCl pH 8.8 and 20 mM H₃PO₄ pH 2.4. […] Regeneration” for “Regeneration”

The Kd is the concentration at which binding is half-saturated. Read a low Kd as a tighter complex.

Where a chain is given by its changes, count along the chain named.

T1 sequence (P55899 24-297, chain 1 of 2): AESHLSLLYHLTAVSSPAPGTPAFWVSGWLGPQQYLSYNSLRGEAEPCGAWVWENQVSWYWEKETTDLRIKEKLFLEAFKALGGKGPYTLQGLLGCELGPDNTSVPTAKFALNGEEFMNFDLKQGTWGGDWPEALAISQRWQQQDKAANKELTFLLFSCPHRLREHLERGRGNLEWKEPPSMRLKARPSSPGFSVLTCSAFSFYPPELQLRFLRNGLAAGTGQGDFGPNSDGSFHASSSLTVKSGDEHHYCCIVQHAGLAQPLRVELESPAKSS
T1 sequence (P61769 21-119, chain 2 of 2): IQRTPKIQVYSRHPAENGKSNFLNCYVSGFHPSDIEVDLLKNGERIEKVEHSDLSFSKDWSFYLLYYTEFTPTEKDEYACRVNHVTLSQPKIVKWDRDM

B1: Fc-ΔG236 (other)
chain: DKTHTCPPCPAPELLGPSVFLFPPKPKDTLMISRTPEVTCVVVDVSHEDPEVKFNWYVDGVEVHNAKTKPREEQYNSTYRVVSVLTVLHQDWLNGKEYKCKVSNKALPAPIEKTISKAKGQPREPQVYTLPPSRDELTKNQVSLTCLVKGFYPSDIAVEWESNGQPENNYKTTPPVLDSDGSFFLYSKLTVDKSRWQQGNVFSCSVMHEALHNHYTQKSLSLSPGK
As to B1, the dissociation constant (Kd) in the test with soluble human FcRn [1] is 0.13 µM. That is a sub-micromolar value.

B2: Fc-ΔG236-MST-HN (other)
chain: B1 chain with M31Y, S33T, T35E, H212K, N213F
As to B2, the Kd with soluble human FcRn [2] was determined as 1.42 µM; with soluble human FcRn [1], 0.0154 µM.

B3: human FcγRIIa-131H (receptor, UniProt P12318 34-218, looked up)
chain: QAAAPPKAVLKLEPPWINVLQEDSVTLTCQGARSPESDSIQWFHNGNLIPTHTQPSYRFKANNNDSGEYTCQTGQTSLSDPVHLTVLSEWLVLQTPHLEFQEGETIMLRCHSWKDKPLVKVTFFQNGKSQKFSHLDPTFSIPQANHSHSGDYHCTGNIGYTLFSSKPVTITVQVPSMGSSSPMGI
modifications: C-terminal biotin
notes: Bought, C-terminally biotinylated; captured on a streptavidin sensor
Regarding B3, the Kd is 0.189 µM in the test with Fc-G236A-MST-HN, more than 2 µM in the test with Fc-IHH, 0.0911 µM with Fc-G236A and 1.65 µM with Fc-MST-HN.

B4: human FcγRIIb (receptor, UniProt P31994 43-217, looked up)
chain: TPAAPPKAVLKLEPQWINVLQEDSVTLTCRGTHSPESDSIQWFHNGNLIPTHTQPSYRFKANNNDSGEYTCQTGQTSLSDPVHLTVLSEWLVLQTPHLEFQEGETIVLRCHSWKDKPLVKVTFFQNGKSKKFSRSDPNFSIPQANHSHSGDYHCTGNIGYTLYSSKPVTITVQAP
modifications: C-terminal biotin
notes: Bought, C-terminally biotinylated; captured on a streptavidin sensor; also called hFcγRIIb
In the case of B4, the Kd with Fc-G236A-MST-HN, with Fc-IHH, with Fc-G236A and with Fc-MST-HN was more than 2 µM throughout.

B5: human FcγRIIa-131R (receptor, UniProt P12318 34-218, looked up)
chain: B3 chain with H134R
modifications: C-terminal biotin
notes: as for B3
As to B5, the Kd was 0.269 µM with Fc-G236A-MST-HN, more than 2 µM with Fc-IHH, 0.166 µM in the test with Fc-G236A and 1.64 µM with Fc-MST-HN.
